According to publication PMC9590138:

Molecular target: recombinant soluble CD146 (UniProt P43121)
Experiment: ELISA; in-house ELISA: binding of αvβ3 to rsCD146, dissociation constant estimated; methods in Additional file 1, not shown

Kd: 1.8 nM
Substance: integrin αvβ3 (protein used in the in-house ELISA) (from UniProt P06756 31-1048; P05106 27-788) (receptor)
